Measured values published in patent US20140249091A1 (BIOUSIAN BIOSYSTEMS, published 2014).
Like-named read-outs stand apart in the source and are kept apart here. Non-standard residues stand in square brackets, D forms with d. *: point of attachment. βGlc = OC[C@H]1O[C@@H](*)[C@H](O)[C@@H](O)[C@@H]1O; Nle = CCCC[C@H](N)C(=O)O; Nva = CCC[C@H](N)C(=O)O

Columns and labels:
[1] = target: T1, human mu opioid receptor (human, UniProt P35372 1-400); assay: competition vs [3H]DAMGO, hMOR CHO cell membranes (summary table)
T1 construct: whole, on cells; Assayed as CHO cell membranes; also called hMOR; MOR

[2] = target: T2, human delta opioid receptor (human, UniProt P41143 1-372); assay: cell-based or functional assay
[3] = target: T1, human mu opioid receptor; assay: cell-based or functional assay
[4] = target: T2, human delta opioid receptor; assay: competition vs 0.2 nM [3H]naltrindole, hDOR CHO cell membranes
[5] = target: T2, human delta opioid receptor; assay: competition vs [3H]naltrindole, hDOR CHO cell membranes; reference DPDPE
[6] = target: human kappa opioid receptor (human) (UniProt P41145); assay: inhibition of [3H]U69,593 binding at 10 uM peptide, hKOR CHO cell membranes
[7] = target: T2, human delta opioid receptor; assay: radioligand competition; reference hMOR
[8] = target: T1, human mu opioid receptor; assay: competition vs 0.25 nM [3H]DAMGO, hMOR CHO cell membranes
[9] = target: T2, human delta opioid receptor; assay: competition vs [3H]naltrindole, hDOR CHO cell membranes (summary table)
[10] = target: T1, human mu opioid receptor; assay: competition vs 0.25 nM [3H]DAMGO, hMOR CHO cell membranes; remark: listed apart in the source
[11] = target: T2, human delta opioid receptor; assay: competition vs 0.2 nM [3H]naltrindole, hDOR CHO cell membranes; remark: listed apart in the source
[12] = target: human kappa opioid receptor (human) (UniProt P41145); assay: inhibition of [3H]U69,593 binding at 10 uM peptide, hKOR CHO cell membranes; remark: listed apart in the source

T1 sequence (P35372 whole entry): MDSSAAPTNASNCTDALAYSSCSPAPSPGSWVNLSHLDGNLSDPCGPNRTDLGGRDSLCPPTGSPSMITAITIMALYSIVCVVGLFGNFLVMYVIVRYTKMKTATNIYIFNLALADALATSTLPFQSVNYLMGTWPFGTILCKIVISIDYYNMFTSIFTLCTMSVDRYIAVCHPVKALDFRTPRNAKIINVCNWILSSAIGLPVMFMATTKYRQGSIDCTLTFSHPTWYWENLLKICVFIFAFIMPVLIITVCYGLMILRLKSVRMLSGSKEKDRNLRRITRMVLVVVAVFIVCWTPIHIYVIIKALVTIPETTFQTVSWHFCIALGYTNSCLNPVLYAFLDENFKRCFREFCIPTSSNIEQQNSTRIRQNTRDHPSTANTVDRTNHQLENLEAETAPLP
T2 sequence (P41143 whole entry, stated change not applied): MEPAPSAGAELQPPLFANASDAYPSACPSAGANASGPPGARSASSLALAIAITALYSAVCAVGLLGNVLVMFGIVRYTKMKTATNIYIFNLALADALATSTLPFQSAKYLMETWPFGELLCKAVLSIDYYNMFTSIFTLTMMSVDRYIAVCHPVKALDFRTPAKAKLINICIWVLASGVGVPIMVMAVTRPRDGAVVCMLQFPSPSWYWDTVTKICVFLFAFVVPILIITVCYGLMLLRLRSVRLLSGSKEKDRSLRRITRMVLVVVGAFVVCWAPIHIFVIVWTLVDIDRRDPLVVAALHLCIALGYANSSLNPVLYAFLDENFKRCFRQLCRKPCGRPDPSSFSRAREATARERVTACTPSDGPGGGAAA
human kappa opioid receptor (human), sequence (P41145 whole entry): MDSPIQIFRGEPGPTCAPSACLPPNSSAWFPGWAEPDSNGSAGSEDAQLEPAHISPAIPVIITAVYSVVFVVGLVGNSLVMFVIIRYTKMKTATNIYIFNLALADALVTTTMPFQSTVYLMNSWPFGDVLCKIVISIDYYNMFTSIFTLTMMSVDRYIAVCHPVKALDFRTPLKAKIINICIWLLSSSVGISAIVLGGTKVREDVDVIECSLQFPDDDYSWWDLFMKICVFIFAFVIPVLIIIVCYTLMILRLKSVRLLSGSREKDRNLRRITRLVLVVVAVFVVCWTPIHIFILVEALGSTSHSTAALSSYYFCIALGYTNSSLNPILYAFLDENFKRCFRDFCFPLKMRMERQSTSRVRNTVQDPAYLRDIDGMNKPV

DPDPE (peptide)
Ki [1]: 180 nM

11009 (H2N-YaFE-Nle-Nle-T-amide) (peptide)
EC50 (nM), agonist properties, [35S]GTPγS binding [2]: 12 nM | EMax (%), agonist properties, [35S]GTPγS binding [2]: 67% | EMax (%), agonist properties, [35S]GTPγS binding [3]: 42%

B1: 11008 = Deltorphin B4, H2N-YaFE-Nle-Nle-T(beta-D-Glc)-amide (peptide)
peptide: H-Y[dA]FE[Nle][Nle]T(βGlc)-NH2
SMILES: CCCC[C@H](NC(=O)[C@H](CCC(=O)O)NC(=O)[C@H](Cc1ccccc1)NC(=O)[C@@H](C)NC(=O)[C@@H](N)Cc1ccc(O)cc1)C(=O)N[C@@H](CCCC)C(=O)N[C@H](C(N)=O)[C@@H](C)O[C@@H]1O[C@H](CO)[C@@H](O)[C@H](O)[C@H]1O
IC50 [4]: 42 nM | Ki [4]: 14 nM | fold lower affinity than DPDPE [5]: ~3 fold | Ki [1]: 1100 nM | EC50 (nM), agonist properties, [35S]GTPγS binding [2]: 12 nM | Max Inhib at 10 uM (%) [6]: 2.9% | Selectivity Delta:Mu [7]: 79 fold (Ki mu over Ki delta) | IC50 [8]: 1500 nM | Ki [8]: 1100 nM | Ki [9]: 14 nM

B2: 11005 = Deltorphin B1, H2N-YaFE-Nva-Nva-S(beta-D-Glc)-amide (peptide)
peptide: H-Y[dA]FE[Nva][Nva]S(βGlc)-NH2
SMILES: CCC[C@H](NC(=O)[C@H](CCC)NC(=O)[C@H](CCC(=O)O)NC(=O)[C@H](Cc1ccccc1)NC(=O)[C@@H](C)NC(=O)[C@@H](N)Cc1ccc(O)cc1)C(=O)N[C@@H](CO[C@@H]1O[C@H](CO)[C@@H](O)[C@H](O)[C@H]1O)C(N)=O
notes: also called glycopeptide 11005
Ki [1]: 710 nM | IC50 [10]: 1000 nM | Ki [10]: 710 nM | IC50 [11]: 61 nM | Ki [11]: 20 nM | Selectivity Delta:Mu [7]: 36 fold (Ki mu over Ki delta) | Max Inhib at 10 uM (%) [12]: 5.3% | Ki [9]: 20 nM
